B3: Recombinant SIG-10 Fc-fusion protein (R&D Systems) (Fc fusion, human, UniProt Q96LC7 17-546, looked up)
chain: MDGRFWIRVQESVMVPEGLCISVPCSFSYPRQDWTGSTPAYGYWFKAVTETTKGAPVATNHQSREVEMSTRGRFQLTGDPAKGNCSLVIRDAQMQDESQYFFRVERGSYVRYNFMNDGFFLKVTALTQKPDVYIPETLEPGQPVTVICVFNWAFEECPPPSFSWTGAALSSQGTKPTTSHFSVLSFTPRPQDHNTDLTCHVDFSRKGVSAQRTVRLRVAYAPRDLVISISRDNTPALEPQPQGNVPYLEAQKGQFLRLLCAADSQPPATLSWVLQNRVLSSSHPWGPRPLGLELPGVKAGDSGRYTCRAENRLGSQQRALDLSVQYPPENLRVMVSQANRTVLENLGNGTSLPVLEGQSLCLVCVTHSSPPARLSWTQRGQVLSPSQPSDPGVLELPRVQVEHEGEFTCHARHPLGSQHVSLSLSVHYSPKLLGPSCSWEAEGLHCSCSSQASPAPSLRWWLGEELLEGNSSQDSFEVTPSSAGPWANSSLSLHGGLSSGLRLRCEAWNVHGAQSGSILQLPDKKGLIST
notes: Bought from R&D Systems; Held on the plate by protein A; not shown: Fc part of the bought fusion protein
B4: Recombinant SIG-F (mouse equivalent of human SIG-8) Fc-fusion protein (R&D Systems) (Fc fusion)
chain: TDGYSLSVTGSVTVQEGLCVFVACQVQYPNSKGPVFGYWFREGANIFSGSPVATNDPQRSVLKEAQGRFYLMGKENSHNCSLDIRDAQKIDTGTYFFRLDGSVKYSFQKSMLSVLVIALTEVPNIQVTSTLVSGNSTKLLCSVPWACEQGTPPIFSWMSSALTSLGHRTTLSSELNLTPRPQDNGTNLTCQVNLPGTGVTVERTQQLSVIYAPQKMTIRVSWGDDTGTKVLQSGASLQIQEGESLSLVCMADSNPPAVLSWERPTQKPFQLSTPAELQLPRAELEDQGKYICQAQNSQGAQTASVSLSIRSLLQLLGPSCSFEGQGLHCSCSSRAWPAPSLRWRLGEGVLEGNSSNGSFTVKSSSAGQWANSSLILSMEFSSNHRLSCEAWSDNRVQRATILLVSGPKVSQAGKSETSRGTVL
notes: Bought from R&D Systems; not shown: Fc part of the bought fusion protein

In experiment [1] the target is T1, full length plasmatic VWF (Wilate, Octapharma) (human, UniProt P04275 764-2813).
T1 construct: multimer
T1 sequence (P04275 764-2813 limits assumed): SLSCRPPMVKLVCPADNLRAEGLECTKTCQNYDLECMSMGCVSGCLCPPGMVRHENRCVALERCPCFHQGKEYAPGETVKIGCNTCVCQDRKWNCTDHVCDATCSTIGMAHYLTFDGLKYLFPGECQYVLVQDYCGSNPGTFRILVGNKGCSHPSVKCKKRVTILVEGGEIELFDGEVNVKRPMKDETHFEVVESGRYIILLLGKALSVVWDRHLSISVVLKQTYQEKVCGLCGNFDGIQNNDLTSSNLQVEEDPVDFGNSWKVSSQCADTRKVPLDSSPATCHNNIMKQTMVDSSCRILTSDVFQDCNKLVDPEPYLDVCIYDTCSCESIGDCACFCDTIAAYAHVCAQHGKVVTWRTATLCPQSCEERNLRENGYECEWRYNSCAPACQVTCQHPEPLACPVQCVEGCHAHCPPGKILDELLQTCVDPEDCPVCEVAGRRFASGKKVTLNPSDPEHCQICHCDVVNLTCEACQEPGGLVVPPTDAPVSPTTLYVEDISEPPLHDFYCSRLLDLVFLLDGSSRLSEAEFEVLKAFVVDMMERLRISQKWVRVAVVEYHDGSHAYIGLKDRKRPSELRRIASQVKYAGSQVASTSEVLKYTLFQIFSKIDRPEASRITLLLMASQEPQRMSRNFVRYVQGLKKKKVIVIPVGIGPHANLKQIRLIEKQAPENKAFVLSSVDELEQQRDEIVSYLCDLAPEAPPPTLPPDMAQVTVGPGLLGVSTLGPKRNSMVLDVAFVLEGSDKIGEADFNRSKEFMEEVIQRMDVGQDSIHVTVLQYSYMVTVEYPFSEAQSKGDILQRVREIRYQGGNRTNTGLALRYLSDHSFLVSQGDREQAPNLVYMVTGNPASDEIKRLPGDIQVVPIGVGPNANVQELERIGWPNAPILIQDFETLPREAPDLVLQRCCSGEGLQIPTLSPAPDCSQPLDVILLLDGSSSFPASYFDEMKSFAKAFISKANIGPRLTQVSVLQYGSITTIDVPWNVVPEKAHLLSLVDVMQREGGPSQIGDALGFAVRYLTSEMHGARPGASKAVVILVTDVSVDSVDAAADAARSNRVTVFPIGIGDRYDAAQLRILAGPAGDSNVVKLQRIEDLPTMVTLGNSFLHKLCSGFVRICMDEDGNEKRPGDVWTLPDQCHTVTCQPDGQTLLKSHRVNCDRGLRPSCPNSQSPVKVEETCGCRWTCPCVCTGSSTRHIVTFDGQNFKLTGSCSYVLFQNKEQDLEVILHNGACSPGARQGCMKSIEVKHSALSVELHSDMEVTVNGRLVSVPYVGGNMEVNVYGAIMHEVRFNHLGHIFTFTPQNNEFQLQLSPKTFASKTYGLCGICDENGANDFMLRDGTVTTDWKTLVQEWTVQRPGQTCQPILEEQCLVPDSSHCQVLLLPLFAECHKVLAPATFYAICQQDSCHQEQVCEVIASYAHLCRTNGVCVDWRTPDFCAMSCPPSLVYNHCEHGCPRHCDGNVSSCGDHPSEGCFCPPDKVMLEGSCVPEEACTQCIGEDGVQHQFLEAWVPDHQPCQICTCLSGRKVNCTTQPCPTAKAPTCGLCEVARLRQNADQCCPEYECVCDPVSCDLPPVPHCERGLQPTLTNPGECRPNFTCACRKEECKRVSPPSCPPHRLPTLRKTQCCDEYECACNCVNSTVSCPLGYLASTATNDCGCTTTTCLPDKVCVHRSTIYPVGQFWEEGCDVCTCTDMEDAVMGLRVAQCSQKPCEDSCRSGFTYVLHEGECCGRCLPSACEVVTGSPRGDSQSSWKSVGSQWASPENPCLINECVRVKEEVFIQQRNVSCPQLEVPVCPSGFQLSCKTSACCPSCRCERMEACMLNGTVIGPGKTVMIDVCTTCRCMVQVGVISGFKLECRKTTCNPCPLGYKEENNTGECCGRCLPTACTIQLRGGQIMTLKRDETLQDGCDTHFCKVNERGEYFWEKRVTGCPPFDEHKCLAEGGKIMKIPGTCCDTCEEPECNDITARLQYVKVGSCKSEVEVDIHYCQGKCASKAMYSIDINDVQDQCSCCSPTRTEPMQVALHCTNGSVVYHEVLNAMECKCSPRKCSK
The experiment is described as follows: SPR (Biacore 3000): VWF immobilised on a CM5 chip by amine coupling, FVIII injected 0.2-45 nM; mean of five measurements.

Experiment [2] concerns the target T2, Recombinant SIG-9 Fc-fusion protein (R&D Systems) (human, UniProt Q9Y336 18-348).
T2 construct: Bought from R&D Systems; Held on the plate by protein A; also called SIGLEC 9; not shown: Fc part of the bought fusion protein
The experiment is described as follows: ELISA: SIGLEC-Fc captured on a protein A plate (500 ng/well), biotinylated cluster fragment at 4 µg/mL, streptavidin-HRP, A492, single concentration.

Experiment [3] addresses T3, Recombinant SIG-7 Fc-fusion protein (R&D Systems) (human, UniProt Q9Y286 19-357, limits assumed).
T3 construct: Bought from R&D Systems; Held on the plate by protein A; also called SIGLEC 7; not shown: Fc part of the bought fusion protein
The description is as above.

The target in experiment [4] is B3. The experiment is described as above.
For experiment [5], the target named is T4, Recombinant SIG-5 Fc-fusion protein (R&D Systems) (human, UniProt O15389 17-434, limits assumed).
T4 construct: Bought from R&D Systems; Held on the plate by protein A; also called SIGLEC 5; not shown: Fc part of the bought fusion protein
T4 sequence (looked up): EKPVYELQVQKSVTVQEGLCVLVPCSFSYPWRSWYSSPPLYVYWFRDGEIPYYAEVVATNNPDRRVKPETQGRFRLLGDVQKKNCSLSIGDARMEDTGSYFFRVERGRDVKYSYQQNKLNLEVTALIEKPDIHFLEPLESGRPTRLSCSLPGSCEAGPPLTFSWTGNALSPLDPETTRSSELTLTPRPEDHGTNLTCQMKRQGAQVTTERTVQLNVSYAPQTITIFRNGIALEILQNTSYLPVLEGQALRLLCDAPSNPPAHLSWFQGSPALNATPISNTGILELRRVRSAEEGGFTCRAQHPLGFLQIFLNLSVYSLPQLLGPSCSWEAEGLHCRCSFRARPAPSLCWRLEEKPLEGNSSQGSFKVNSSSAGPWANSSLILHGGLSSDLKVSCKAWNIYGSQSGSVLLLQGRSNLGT
Described as above.

The target of experiment [6] is B4. The experiment is described as follows: ELISA: SIGLEC-Fc captured on a protein A plate (500 ng/well), biotinylated cluster fragment at 4 µg/mL, streptavidin-HRP, A492, single concentration; sheet says Siglec 8, legend says SIG-F.
Experiment [7] deals with T5, Plasma derived VWF (pdVWF), biotinylated (human, UniProt P04275 764-2813, biotinylated with EZ-Link Sulfo-NHS-Biotin; natural N- and O-glycans of plasma vWF).
T5 construct: Plasma-derived multimeric glycoprotein; also called von Willebrand factor; full length vWF
T5 sequence (P04275 764-2813 limits assumed): as the sequence (P04275 764-2813 limits assumed) above
In words: ELISA: SIGLEC-Fc captured on a protein A plate (500 ng/well), biotinylated plasma derived vWF 0-0.8 µg/mL, streptavidin-HRP, A492.

Experiment [8] concerns the target T6, Seq11 (recombinant vWF fragment AA 1-505 of SEQ ID NO: 1 with C-terminal Strep-Tag, from HEK 293) (human, UniProt P04275 764-1268, four O-glycosylation sites 485, 492, 493, 500 occupied (core 1, core 2 and/or extended core 1, sialylated)).
T6 construct: Expressed in HEK293 / MEXi-293 cells, purified on Strep-Tactin; not shown: C-terminal Twin-Strep-tag of the pDSG vector (IBA)
In words: SIGLEC ELISA, Scatchard analysis of the binding curve (apparent KD); printed SIGLEC 8, ELISA done as in Examples 8 and 9 with SIG-F.

Experiment [9] concerns the target T7, vWF C-terminal fragment (V8 protease digest of plasma derived vWF) (human, UniProt P04275 2129-2813, biotinylated with EZ-Link Sulfo-NHS-Biotin).
T7 construct: the real molecule is only its C-terminal part; also called C-terminal vWF fragment
In words: ELISA: SIGLEC-Fc captured on a protein A plate (500 ng/well), biotinylated vWF fragment at 1 µg/mL, streptavidin-HRP, A492, single concentration; sheet says Siglec 8, legend says SIG-F.

T2 sequence (Q9Y336 18-348 limits assumed): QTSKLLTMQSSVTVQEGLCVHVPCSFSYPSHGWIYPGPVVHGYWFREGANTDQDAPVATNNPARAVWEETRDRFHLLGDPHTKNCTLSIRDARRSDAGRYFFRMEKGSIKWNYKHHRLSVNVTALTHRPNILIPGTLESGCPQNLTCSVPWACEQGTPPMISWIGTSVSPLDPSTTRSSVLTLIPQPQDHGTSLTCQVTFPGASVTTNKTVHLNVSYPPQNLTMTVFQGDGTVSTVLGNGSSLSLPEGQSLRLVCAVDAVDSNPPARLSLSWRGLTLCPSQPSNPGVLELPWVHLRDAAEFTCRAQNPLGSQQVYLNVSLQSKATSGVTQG
T6 sequence (P04275 764-1268): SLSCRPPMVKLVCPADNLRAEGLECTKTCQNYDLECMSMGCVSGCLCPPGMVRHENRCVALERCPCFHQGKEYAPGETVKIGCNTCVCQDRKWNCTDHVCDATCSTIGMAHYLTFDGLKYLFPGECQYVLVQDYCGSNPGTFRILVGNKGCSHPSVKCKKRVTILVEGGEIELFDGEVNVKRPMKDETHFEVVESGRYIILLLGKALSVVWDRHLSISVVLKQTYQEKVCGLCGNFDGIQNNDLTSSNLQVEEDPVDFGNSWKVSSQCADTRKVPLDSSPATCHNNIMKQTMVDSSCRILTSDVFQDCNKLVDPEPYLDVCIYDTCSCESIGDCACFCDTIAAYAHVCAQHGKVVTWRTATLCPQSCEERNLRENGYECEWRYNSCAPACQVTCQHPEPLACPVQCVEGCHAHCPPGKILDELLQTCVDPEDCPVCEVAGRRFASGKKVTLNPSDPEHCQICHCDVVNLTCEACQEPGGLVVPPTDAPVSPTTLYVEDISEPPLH
T3 sequence (Q9Y286 19-357 limits assumed): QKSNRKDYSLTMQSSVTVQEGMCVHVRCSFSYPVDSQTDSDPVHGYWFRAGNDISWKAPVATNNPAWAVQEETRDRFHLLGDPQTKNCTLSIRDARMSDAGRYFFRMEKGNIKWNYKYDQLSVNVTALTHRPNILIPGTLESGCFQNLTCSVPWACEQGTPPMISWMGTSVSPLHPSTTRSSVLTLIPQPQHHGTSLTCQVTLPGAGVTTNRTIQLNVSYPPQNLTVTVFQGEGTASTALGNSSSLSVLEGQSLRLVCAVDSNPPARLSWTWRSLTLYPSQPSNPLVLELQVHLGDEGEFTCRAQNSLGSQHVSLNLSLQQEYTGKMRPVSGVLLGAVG
T7 sequence (P04275 2129-2813 limits assumed): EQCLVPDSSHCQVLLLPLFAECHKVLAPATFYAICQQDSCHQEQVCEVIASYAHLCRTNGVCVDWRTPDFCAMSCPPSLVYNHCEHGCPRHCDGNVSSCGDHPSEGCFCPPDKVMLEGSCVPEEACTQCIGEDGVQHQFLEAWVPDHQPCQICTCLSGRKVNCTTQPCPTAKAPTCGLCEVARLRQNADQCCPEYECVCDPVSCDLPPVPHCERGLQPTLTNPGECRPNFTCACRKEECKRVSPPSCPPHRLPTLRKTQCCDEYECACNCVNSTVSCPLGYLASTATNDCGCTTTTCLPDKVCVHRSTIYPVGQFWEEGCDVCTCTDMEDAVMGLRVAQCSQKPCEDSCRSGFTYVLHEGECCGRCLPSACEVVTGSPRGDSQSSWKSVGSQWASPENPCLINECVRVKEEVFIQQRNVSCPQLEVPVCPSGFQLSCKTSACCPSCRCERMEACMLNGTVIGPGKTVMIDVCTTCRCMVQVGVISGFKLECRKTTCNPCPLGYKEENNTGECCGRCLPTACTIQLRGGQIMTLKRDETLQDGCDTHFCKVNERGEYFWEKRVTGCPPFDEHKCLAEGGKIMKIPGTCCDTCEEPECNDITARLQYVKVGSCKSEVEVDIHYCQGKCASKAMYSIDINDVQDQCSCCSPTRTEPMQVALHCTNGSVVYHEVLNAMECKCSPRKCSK

B1: FVIII (Nuwiq, Octapharma) (other, UniProt P00451 20-2351, looked up)
chain: ATRRYYLGAVELSWDYMQSDLGELPVDARFPPRVPKSFPFNTSVVYKKTLFVEFTDHLFNIAKPRPPWMGLLGPTIQAEVYDTVVITLKNMASHPVSLHAVGVSYWKASEGAEYDDQTSQREKEDDKVFPGGSHTYVWQVLKENGPMASDPLCLTYSYLSHVDLVKDLNSGLIGALLVCREGSLAKEKTQTLHKFILLFAVFDEGKSWHSETKNSLMQDRDAASARAWPKMHTVNGYVNRSLPGLIGCHRKSVYWHVIGMGTTPEVHSIFLEGHTFLVRNHRQASLEISPITFLTAQTLLMDLGQFLLFCHISSHQHDGMEAYVKVDSCPEEPQLRMKNNEEAEDYDDDLTDSEMDVVRFDDDNSPSFIQIRSVAKKHPKTWVHYIAAEEEDWDYAPLVLAPDDRSYKSQYLNNGPQRIGRKYKKVRFMAYTDETFKTREAIQHESGILGPLLYGEVGDTLLIIFKNQASRPYNIYPHGITDVRPLYSRRLPKGVKHLKDFPILPGEIFKYKWTVTVEDGPTKSDPRCLTRYYSSFVNMERDLASGLIGPLLICYKESVDQRGNQIMSDKRNVILFSVFDENRSWYLTENIQRFLPNPAGVQLEDPEFQASNIMHSINGYVFDSLQLSVCLHEVAYWYILSIGAQTDFLSVFFSGYTFKHKMVYEDTLTLFPFSGETVFMSMENPGLWILGCHNSDFRNRGMTALLKVSSCDKNTGDYYEDSYEDISAYLLSKNNAIEPRSFSQNSRHQAYRYRRGEITRTTLQSDQEEIDYDDTISVEMKKEDFDIYDEDENQSPRSFQKKTRHYFIAAVERLWDYGMSSSPHVLRNRAQSGSVPQFKKVVFQEFTDGSFTQPLYRGELNEHLGLLGPYIRAEVEDNIMVTFRNQASRPYSFYSSLISYEEDQRQGAEPRKNFVKPNETKTYFWKVQHHMAPTKDEFDCKAWAYFSDVDLEKDVHSGLIGPLLVCHTNTLNPAHGRQVTVQEFALFFTIFDETKSWYFTENMERNCRAPCNIQMEDPTFKENYRFHAINGYIMDTLPGLVMAQDQRIRWYLLSMGSNENIHSIHFSGHVFTVRKKEEYKMALYNLYPGVFETVEMLPSKAGIWRVECLIGEHLHAGMSTLFLVYSNKCQTPLGMASGHIRDFQITASGQYGQWAPKLARLHYSGSINAWSTKEPFSWIKVDLLAPMIIHGIKTQGARQKFSSLYISQFIIMYSLDGKKWQTYRGNSTGTLMVFFGNVDSSGIKHNIFNPPIIARYIRLHPTHYSIRSTLRMELMGCDLNSCSMPLGMESKAISDAQITASSYFTNMFATWSPSKARLHLQGRSNAWRPQVNNPKEWLQVDFQKTMKVTGVTTQGVKSLLTSMYVKEFLISSSQDGHQWTLFFQNGKVKVFQGNQDSFTPVVNSLDPPLLTRYLRIHPQSWVHQIALRMEVLGCEAQDLY
notes: Commercial product; also called recombinant FVIII; factor VIII
As for B1, in experiment [1], the Kd turned out to be 0.3 nM.

B2: Cluster 1 fragment (tryptic glycopeptide of plasma derived vWF, AA 449 to 511) (peptide)
peptide: VTLNPSDPEHC(Maleimide‑PEG2‑Biotin)QIC(Maleimide‑PEG2‑Biotin)HC(Maleimide‑PEG2‑Biotin)DVVNLTC(Maleimide‑PEG2‑Biotin)EAC(Maleimide‑PEG2‑Biotin)QEPGGLVVPPTDAPVSPTTLYVEDISEPPLHDFYC(Maleimide‑PEG2‑Biotin)SR
modifications: also: natural O-glycans (sialylated core 2), sites not given here
notes: also called Cluster I; O-glycosylation Cluster I
B2: the binding result in [2], in experiment [3], in experiment [4], in [5] and in [6] was “no binding (tested: 4 µg/mL)” throughout.

Consider B3, for which, in experiment [7], the binding result is listed as “no binding (tested: 0.8 µg/mL)”.

Turning to B4, in experiment [8], the Kd was 1030 nM. Also, the binding result in experiment [9] is reported as “no binding (tested: 1 µg/mL)”.

The values above are taken from patent US20210275644A1 (OCTAPHARMA, published 2021).
